# In patent US20030165919A1, “Method for the analysis of exogenic and endogenic cell activiation based on measuring the aggregation of receptors” (priority 2000, published 2003):
# Columns and labels:
# [1] = biological target: T1, CD11b and CD14 (Homo sapiens, UniProt P08571); experiment: FRET flow cytometry: co-assembly of CD11b and CD14 on monocytes; format: cell-based; conditions: human monocytes in whole blood, stimulation with the substance alone, 37° C. 15 minutes
# T1 construct: endogenous in cells; host or cells: human monocytes in heparinised whole blood (healthy donors and patients)
# T1 sequence (P08571 20-345 limits assumed): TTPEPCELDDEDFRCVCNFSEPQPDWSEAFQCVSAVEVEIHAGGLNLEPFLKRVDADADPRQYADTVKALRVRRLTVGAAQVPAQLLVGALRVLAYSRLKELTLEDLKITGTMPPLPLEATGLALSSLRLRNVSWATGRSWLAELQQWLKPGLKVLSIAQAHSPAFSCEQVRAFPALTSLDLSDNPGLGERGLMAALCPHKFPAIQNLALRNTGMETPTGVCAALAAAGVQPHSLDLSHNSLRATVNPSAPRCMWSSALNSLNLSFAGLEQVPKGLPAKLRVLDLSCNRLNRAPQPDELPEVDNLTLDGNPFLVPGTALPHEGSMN
# Protocol: (§1) Aliquots […] of whole blood were incubated with the following stimulatory compounds at 37° C. for 15 minutes: LPS of Salmonella minnesota (0.1-10 nM, Mw 10 kDa), ceramide (primarily stearic acid and nervonic acid) and sulfogalactosyl ceramide (SG-cer, […]), both of which tested LPS free in the LAL assay (Cer, 1 nM-5.5 mM), lysophosphatidyl choline (lyso-PC, 10 mM), phorbol-12-myristate-13-acetate (PMA, 1 mM), N-formyl-L-methionyl-L-leucyl-L-phenyl alamine (fMLP, 1 mM), PE, PC, PI and PS liposomes (10 mm) which had been prepared as described above. All reagents were obtained from Sigma. In addition, the cells were stimulated with HPS70 (7 nM), dHSP70 (7 nM) and SG-cer+dHSP70 (40 nM+7 nM). After incubation, the cells were washed with cold PBS containing 0.1% of NaN3. The synthetic LPS antagonist lipid IVa (“compound-406”, 1-400 ng/ml) and lipid A derived from E. coli (1-100 ng/ml) were made available by courtesy of Dr. S. Kusumoto. The cells were pre-incubated with the LPS antagonist at 37° C. for 15 minutes and then stimulated with LPS at the same temperature (without washing).
# (§2) Whole blood cells which had been stimulated or washed ex vivo […] were incubated on ice for 15 minutes with saturation concentrations of monoclonal fluorochrom-conjugated or biotinylated antibodies. The monoclonal antibodies CD11a (clone 25.3.1), CD16a (clone 3G8). CD18 (clone 7E4), CD14 (clone RMO52), CD33 (clone My9-RD1). CD81 (clone Js64) were obtained as R-phyco-erythrine (R-PE) conjugates and CD25 (clone B1.49.9) in biotinylated form from Coulter/Immunotech (Krefeld, Germany). CD11b (clone d12), CD11c (clone S-HCL-3), CD36 (clone CB38), CD47 (clone B6H12), CD81 (clone JS-81) and (Cd55 (clone IA10) in biotinylated form and Streptavidin-R-PE were purchased from Becton/Dickinson/Pharningen (Heidelberg, Germany) CD18 (clone IB4) in biontinylated form and CD40 (clone EA-5) as R-PE conjugate were obtained from Alexis (Grünberg, Germany) and CD14 (clones ×8 and Uchml) and CD3 (clone Cris-7) in biotinylated form and Streptavidin-Cy5 (Sa-Cy5) from Dianova (Hamburg, Germany), CD32 (clone C1KM5) and CD64 (clone 10.1) were obtained as R-PE conjugates from Caltag (Burlingame, U.S.A.) and CD91 (clone 8G1) in biotinylated form from Proen (Heidelberg, Germany). A monoclonal anti-TLRA antibody (clone HTA125) was kindly provided by Dr. Kensuke. Since no energy transfer between the antibodies directed against the CD14/CD11a and CD14/CD11c pairs was detectable either on resting or on stimulated cells, these antibody combinations were not characterised further.
# Lysis of erythrocytes and washing were carried out as described (Rothe et al., Thromb. Vasc. Biol. 16 (1996), 1437-1447). After the last washing step, the samples were divided and part of each sample incubated with a saturating amount of SA-Cy5 on ice for 15 minutes and washed before measuring.
# For energy transfer experiments, […] aliquots of whole blood were treated with cholesterol/methyl cyclodextrine (C/C) (100 mg/ml/4.6 mg/ml) or 2-hydroxypropyl-β-cyclodextrine (0.15 mg/ml) at 37° C. for 30 minutes and then stimulated further with LPS (4 nM) or ceramide (40 nM) as described above. The energy transfer between CD14 and CD11b was measured.
# A “FACSCalibur” flow cytometer (Becton Dickinson) equipped with an air-cooled 15 mW argon laser (excitation wavelength 488 nm), a diode laser (excitation wavelength […]) and standard filters [channel 1 (FITC): 530/30 nm band pass filter; channel 2 (R-PE being used as donor dye); 585/47 nm band pass filter; channel 3 (PerCP): pass having a length of >670 nm; and channel 4 (Cy5being used as recipient dye): 661/16 nm bad pass filter] was used. The Cellquest software (Becton Dickinson) was used for the measurements. […] Measurement was conducted without compensation. 50,000 leukocytes were required in the “list” modus, forward scattering (FSC) being used as a trigger signal. […]
# [2] = biological target: T2, CD55/CD14 (Uchm1) (Homo sapiens, UniProt P08571); experiment: FRET co-assembly of CD55 with CD14 on monocytes; format: cell-based; conditions: LPS 4 nM, ceramide 40 nM, LTA 1 μg/ml, HSP70 7 nM; mean ± SD of 10 experiments; >5% = positive transfer
# T2 construct: endogenous in cells; host or cells: human monocytes in whole blood
# T2 sequence (P08571 20-345 limits assumed): T1 sequence (P08571 20-345 limits assumed)
# Protocol: as §1
# (§3) Whole blood cells which had been stimulated or washed ex vivo […] were incubated on ice for 15 minutes with saturation concentrations of monoclonal fluorochrom-conjugated or biotinylated antibodies. The monoclonal antibodies CD11a (clone 25.3.1), CD16a (clone 3G8). […]
# [3] = biological target: T3, CD36/CD14 (×8) (Homo sapiens, UniProt P08571); experiment: FRET co-assembly of CD36 with CD14 on monocytes; format: cell-based; conditions: LPS 4 nM, ceramide 40 nM, LTA 1 μg/ml, HSP70 7 nM; mean ± SD of 10 experiments; >5% = positive transfer
# T3 construct: endogenous in cells; host or cells: human monocytes in whole blood
# T3 sequence (P08571 20-345 limits assumed): T1 sequence (P08571 20-345 limits assumed)
# Protocol: as §1, §3
# [4] = biological target: T4, CD32/CD14 (Uchm1) (Homo sapiens, UniProt P08571); experiment: FRET co-assembly of CD32 with CD14 on monocytes; format: cell-based; conditions: LPS 4 nM, ceramide 40 nM, LTA 1 μg/ml, HSP70 7 nM; mean ± SD of 10 experiments; >5% = positive transfer
# T4 construct: endogenous in cells; host or cells: human monocytes in whole blood
# T4 sequence (P08571 20-345 limits assumed): T1 sequence (P08571 20-345 limits assumed)
# Protocol: as §1, §3
# [5] = biological target: T5, CD64/CD14 (Uchm1) (Homo sapiens, UniProt P08571); experiment: FRET co-assembly of CD64 with CD14 on monocytes; format: cell-based; conditions: LPS 4 nM, ceramide 40 nM, LTA 1 μg/ml, HSP70 7 nM; mean ± SD of 10 experiments; >5% = positive transfer
# T5 construct: endogenous in cells; host or cells: human monocytes in whole blood
# T5 sequence (P08571 20-345 limits assumed): T1 sequence (P08571 20-345 limits assumed)
# Protocol: as §1, §3
# [6] = biological target: T6, TLR-4/CD14 (×8) (Homo sapiens, UniProt P08571); experiment: FRET co-assembly of TLR-4 with CD14 on monocytes; format: cell-based; conditions: LPS 4 nM, ceramide 40 nM, LTA 1 μg/ml, HSP70 7 nM; mean ± SD of 10 experiments; >5% = positive transfer
# T6 construct: endogenous in cells; host or cells: human monocytes in whole blood
# T6 sequence (P08571 20-345 limits assumed): T1 sequence (P08571 20-345 limits assumed)
# Protocol: as §1, §3
# [7] = biological target: T7, CD81/CD14 (×8) (Homo sapiens, UniProt P08571); experiment: FRET co-assembly of CD81 with CD14 on monocytes; format: cell-based; conditions: LPS 4 nM, ceramide 40 nM, LTA 1 μg/ml, HSP70 7 nM, mean ± SD of 10 experiments
# T7 construct: endogenous in cells; host or cells: human monocytes in whole blood (donors; also sepsis and CAD patients)
# T7 sequence (P08571 20-345 limits assumed): T1 sequence (P08571 20-345 limits assumed)
# Protocol: as §1
# as §2, with “further. […]” for “further.”
# [8] = biological target: T8, CD18(7E4)/CD14 (×8) (Homo sapiens, UniProt P08571); experiment: FRET co-assembly of CD18 with CD14 on monocytes; format: cell-based; conditions: LPS 4 nM, ceramide 40 nM, LTA 1 μg/ml, HSP70 7 nM; mean ± SD of 10 experiments; >5% = positive transfer
# T8 construct: endogenous in cells; host or cells: human monocytes in whole blood
# T8 sequence (P08571 20-345 limits assumed): T1 sequence (P08571 20-345 limits assumed)
# Protocol: as §1, §3
# [9] = biological target: T9, human CD14 (Homo sapiens, UniProt P08571); experiment: Binding of [14C]N-palmitoyl-D-sphingosine to CHO cells transfected with human CD14
# T9 construct: expressed in transfected cells; host or cells: CHO cells (control: pPol-DHFR vector)
# T9 sequence (P08571 20-345): T1 sequence (P08571 20-345 limits assumed)
# Protocol: d. CHO cells transfected with human CD14 (-unlabelled ceramide)(●)+unlabelled ceramide (∘)) or with a pPol-DHFR vector (-unlabelled ceramide (▪)+unlabelled ceramide (□)) were incubated with the specified concentrations of [^14C]N-palmitoyl-D-sphingosine and the ^14C bound to the cells determined. Each data point represents the mean value ± SD of three measurements.
# Cells transfected with human CD14 or the pPol-DHFR vector were grown as described recently (Stelter et al., Eur. J. Biochem. 238 (1996), 457-464). The cells were trypsinated, washed twice with PBS and then taken up in PBS containing 10% of human serum. CHO cells (4×10^5) were pre-incubated on ice in the presence of a 50 fold excess of unlabelled N-palmitoyl-D-sphingosine (Sigma) for 15 minutes in a final volume of […]. After that [^14C]N-palmitoyl-D-sphingosine (American Radiolabeled Chemicals Inc., St. Louis, Mo., U.S.A.) was added and the cells incubated for another 15 minutes. In order to remove non-bound activity, the cells were washed twice and then transferred to a fresh Eppendorf vessel. After repeated washing, the pellet was dissolved in […] of 1% SDS, 10 mM EDTA and then added to 3 ml of scintillation liquid. The amount of cell-bound radioactivity was determined by measuring the scintillation of the liquid.
# [10] = biological target: T10, receptor cluster comprising CD14 (Homo sapiens, UniProt P08571); experiment: FRET with a series of antibody pairs: receptor cluster comprising CD14 on monocytes; format: cell-based; conditions: stimulation of the cells as control
# T10 construct: endogenous in cells; host or cells: human monocytes in whole blood
# T10 sequence (P08571 20-345 limits assumed): T1 sequence (P08571 20-345 limits assumed)
# Protocol: as §1, §3
compound,measurement,setting,value
phosphatidyl serine [PS],co-assembly of CD11b and CD14 (energy transfer between monoclonal antibodies),[1],"Only lipoteichoic acid, PE and PI induced co-assembly"
lyso-phosphatidyl choline [lysoPC],co-assembly of CD11b and CD14 (energy transfer between monoclonal antibodies),[1],"Only lipoteichoic acid, PE and PI induced co-assembly"
dHSP70: HSP70 delipidated in ethanol/diethyl ether,co-assembly of CD11b and CD14 (energy transfer between monoclonal antibodies),[1],does not induce any receptor complex
HSP70: Heat shock protein 70 obtained from Stressgen,co-assembly of CD11b and CD14 (energy transfer between monoclonal antibodies),[1],induces clustering of CD11b and CD14
same,energy transfer CD55/CD14 (Uchm1),[2],6.0 ± 0.5%
same,energy transfer CD36/CD14 (×8),[3],8.2 ± 1.8 %
same,energy transfer CD32/CD14 (Uchm1),[4],5.3 ± 2.1%
same,energy transfer CD64/CD14 (Uchm1),[5],10.1 ± 1.5%
same,energy transfer TLR-4/CD14 (×8),[6],5.4 ± 0.6%
same,energy transfer CD81 (JS-81)/CD14 (×8),[7]; CD81 clone JS-81,1.0 ± 0.1%
same,energy transfer CD81 (Js64)/CD14 (×8),[7]; CD81 clone Js64,3.8 ± 2.5%
same,energy transfer CD18(7E4)/CD14 (×8),[8],6.0 ± 2.1 %
"CCCCCCCCCCCCC/C=C/[C@@H](O)[C@H](CO)N[14C](=O)CCCCCCCCCCCCCCC [[^14C]-N-palnitoyl-D-sphingosine, [^14C]N-palmitoyl-D-sphingosine]",inhibition of binding by 50-fold excess of unlabelled ligand,[9]; CD14-transfected CHO fibroblasts,could be inhibited by adding a 50-fold excess of unlabelled ligand
same,binding to CD14-transfected CHO fibroblasts compared to vector-transfected cells,"[9]; cell-bound 14C, PBS with 10% human serum, on ice 15 minutes",much higher when compared to vector-transfected cells
"CCCCCCCCCCCCCC(=O)O[C@@H]1[C@@H](C)[C@@]2(O)[C@@H](C=C(CO)C[C@]3(O)C(=O)C(C)=C[C@@H]23)[C@@H]2C(C)(C)[C@]12OC(C)=O [PMA, phorbol-12-myristate-13-acetate]",co-assembly of CD11b and CD14 (energy transfer between monoclonal antibodies),[1],neither fMLP or PMA showed any effect
same,energy transfer between any of the antibody pairs,[10],did not result in any significant energy transfer
sulfogalactosyl ceramide [SG-cer],co-assembly of CD11b and CD14 (energy transfer between monoclonal antibodies),[1],"Only lipoteichoic acid, PE and PI induced co-assembly"
